The text below walks through data of article PMC3542282, “P. falciparum cpn20 Is a Bona Fide Co-Chaperonin That Can Replace GroES in E. coli” (PLoS ONE, 2013).

For series [1], the target named is T1, GroEL (E. coli, UniProt P0A6F5 1-548).
Another series concerns the target GroEL (E. coli) (UniProt P0A6F5).
Series [2] deals with P. falciparum cpn20 (P. falciparum). Put plainly: AUC; sedimentation equilibrium, 12,000 rpm, 20°C, 20 mM Tris-HCl pH 7.4, 200 mM NaCl, read at 280 nm after 10, 12 and 14 hrs; with sedimentation velocity at 35,000 rpm, 0.5 mg/ml.
Series [3] concerns the molecule itself. Described as above.
Series [4] has as its target T1, GroEL. The series is described as follows: cell-based or functional assay.

For “GroES (from UniProt P0A6F9 1-97) (natural protein)”, in the series with GroEL [1], the protomer ratio of co-chaperonin to GroEL required for half maximal refolding yield of urea-denatured MDH (10 µM GroEL, 0.16 to 20 µM co-chaperonin, 30 minutes) (co-chaperonin to GroEL protomer ratio) turned out to be 0.125.

With P. falciparum cpn20 (natural protein), the protomer ratio of co-chaperonin to GroEL required for half maximal refolding yield of urea-denatured MDH (10 µM GroEL, 0.16 to 20 µM co-chaperonin, 30 minutes) (co-chaperonin to GroEL protomer ratio) in the series with GroEL (E. coli) was 0.125. In series [2], the stoichiometry N (subunits in the oligomer) was 4.

B1: A. thaliana cpn20 (natural protein, UniProt O65282 51-253, looked up)
chain: AASVVAPKYTSIKPLGDRVLVKIKEAEEKTLGGILLPSTAQSKPQGGEVVAVGEGRTIGKNKIDITVPTGAQIIYSKYAGTEVEFNDVKHLILKEDDIVGILETEDIKDLKPLNDRVFIKVAEAEEKTAGGLLLTETTKEKPSIGTVIAVGPGSLDEEGKITPLPVSTGSTVLYSKYAGNDFKGKDGSNYIALRASDVMAILS
notes: cpn20 (20 kDa double-domain co-chaperonin of the chloroplast) from A. thaliana, At5g20720; probably the mature protein without the transit peptide (predicted tetramer 90 kDa); also called At-cpn20; At-Cpn20; source: bacterial expression, purified as previously described [23]
A word on the stoichiometry N: it is a count of units in the complex or per binding partner. On to B1, for which the “stoichiometry N” value in series [3] amounted to 4 subunits in the oligomer. In the series with GroEL [4], the “protomer ratio of co-chaperonin to GroEL required for half maximal refolding yield of urea-denatured MDH (10 µM GroEL, 0.16 to 20 µM co-chaperonin, 30 minutes)” value is ~0.125 co-chaperonin to GroEL protomer ratio.
